Experiment [1] concerns Nogo receptor-1. The experiment in a line: Blocking of ligand binding to Nogo receptor-1 by soluble receptors.
In experiment [2] the test system is mouse spinal cord dorsal over-hemisection. The experiment in a line: Dorsal over-hemisection in gfap::sNogoR310 transgenic mice. It counts as in vivo. An excerpt: (§1) The Basso-Beattie-Bresnahan (BBB) locomotor rating scale (Basso et al., 1996, Neurotrauma 13, 343-359), the inclined plane test and the inclined grid walking test (Li and Strittmatter, 2003, J Neurosci. 2003, 23, 4219-27) were monitored in rats and mice after injury. For the inclined plane test, we measured the maximal angle to which a 50 cm×60 cm board could be angled for 5 sec without the mouse sliding off. For inclined grid walking, the mice were trained to climb a wire grid (35 cm long with 2.54 cm squares) at a slope of 45 degrees. The number of instances in which the hindpaw dropped below the grid plane was scored for each excursion from bottom to top. For the rat behavioral testing, BBB locomotor scale, grid walking and footprint analysis were performed. For grid walking, the rats were trained to walk on a wire grid (70 cm long with 2.54 cm squares), and the number of instances in which the hindpaw dropped below the grid plane was counted. For footprint analysis, the walking patterns of rat hindpaws were recorded with ink during a continuous locomotion across a 90 cm runway, and stride length on each side and stride width were calculated (Metz et al., 2000, Brain Res., 883, 165-177). All of these behavioral tests were performed by at least two individuals. Throughout the surgery, behavioral testing and histologic analysis, researchers were blind to the identity of the compound in the minipump.
We cloned the mouse sNogoR310 cDNA (corresponding to amino acids 1-310 of the Nogo receptor-1) into the NotI site of the C-3123 vector. In this vector, sNogoR310 expression is under the control of the glial fibrillary acidic protein (gfap) gene regulatory elements, which allow high level expression with enhanced secretion from reactive astrocytes at site of injury. We digested the resulting vector sequentially with AatII and SfiI and isolated the gfap::sNogoR310 construct on a 3.4 kb fragment. We microinjected this fragment into embryos to generate transgenic mice. We verified by PCR that the transgene had integrated and identified five founder lines. We crossed heterozygous males of the two founder lines with the highest expression levels to female C57BL/6J mice. We confirmed that the GFAP-positive cells express and secrete sNogoR310 in heterozygous transgenic mice by Western blot analysis using antibody raised against Nogo receptor-1.
We deeply anesthetized adult female heterozygous transgenic or littermate WT mice (10-16 weeks of age) and performed a complete laminectomy, fully exposing the dorsal part of spinal cord at T6 and T7 levels. We performed a dorsal over-hemisection at T6 with a 30-gauge needle and a pair of microscissors to completely sever the dorsal and dorsolateral corticospinal tracts (CSTs). We passed a marked needle across the dorsal part of the spinal cord several times to assure that the lesion was at a depth of 1.0 mm. We sutured the muscle layers over the laminectomies and closed the skin on the back with surgical staples. To trace the corticospinal tracts, we made a burr hole overlying cerebral cortex on the right side into the skull 14 days after spinal cord injury. We applied the tracer BDA (MW 10,000, 10% in PBS) (Molecular Probes, Eugene, Oreg.) to 4 injection sites at a depth of 0.7 mm from the cortical surface. Four weeks after injury, the mice were perfused transcardially with PBS, followed by 4% paraformaldehyde.
We investigated the integrity of descending corticospinal tracts (CST) by injecting anterograde tracer biotin dextran amine (BDA) into the right motor cortex as described in Li and Strittmatter, 2003, J. Neurosci., 23, 4219-27. In littermate WT mice, the prominent dorsal CST (dCST) is tightly bundled rostral to the lesion, and a few dorsolateral CST fibers are visible ipsilaterally. A small number of BDA-labeled short collateral sprouts project into gray matter, particularly in the ventral cord, but the sprouting is largely confined to the side of the cord contralateral to the tracer injection. […]

Experiment [3] relates to DRG neurons. The experiment in a line: Neurite outgrowth assay, myelin mixed with test protein (Example 10). Format: cell-based. The following applies: P3-4 rat DRG; spotted mixed with CNS myelin. As to the method:
Lab-Tek® culture slides (4 wells) were coated with 0.1 mg/ml poly-D-lysine (Sigma®). CNS myelin alone or mixed with sNogoR310, sNogoR310-Fc fusion protein, mAb 5B10 or control PBS were separately spotted as 3 μl drops. Fluorescent microspheres (Polysciences) were added to the myelin/PBS to allow later identification of the drops (Grandpre et al, Nature 403, 2000). Lab-Tek® slides were then rinsed and coated with 10 μg/ml laminin (Gibco™).
Dorsal root ganglions (DRG's) from P3-4 Sprague Dawley rat pups were dissociated with 1 mg/ml collagenase type 1 (Worthington), triturated with fire-polished Pasteur pipettes pre-plated to enrich in neuronal cells and finally plated at 23,000 cells/well on the pre-coated Labtek culture slides. The culture medium was F12 containing 5% heat inactivated donor horse serum, 5% heat inactivated fetal bovine serum and 50 ng/ml MNGF and incubated at 37° C. and 5% CO2 for 6 hours.
Slides were fixed for 20 minutes with 4% paraformaldehyde containing 20% sucrose and stained for the neuronal marker anti beta-III-tubulin (Covance TUJ1) diluted 1:500. As secondary antibody anti-mouse Alexa Fluor® 594 (Molecular Probes) was diluted 1:300 and slides were coverslipped with Gel/Mount™ (Biømeda™). 5× digital images were acquired with OpenLab™ software and analyzed by using the MetaMorph® software for quantification of neurite outgrowth.

Experiment [4] concerns chick neurons. The experiment in a line: Neurite outgrowth assay using chick neurons. It counts as cell-based.
The subject of experiment [5] is Nogo-66, MAG and myelin. As to the kind of experiment: Blocking of Nogo-66, MAG and myelin action in vitro.
For experiment [6], the system named is rat spinal cord dorsal hemisection. The experiment in a line: Intrathecal sNogoR310-Fc in rats with mid-thoracic dorsal hemisection. It counts as in vivo.
From the text: as §1
We isolated spinal cord 4 mm rostral to and 4 mm caudal to the lesion site (8 mm long in total) from transgenic mice and embedded it in a glutaraldehyde-polymerized albumin matrix, and cut parasagittally on a vibratome (30 μm thick). We collected transverse sections (50 μm) from the spinal cord 5-7 mm rostral to and 5-7 mm caudal, to the injury site. For sNogoR310-Fc injection experiments in rats, the spinal cord extending from 10 mm rostral to 10 mm caudal from the lesion site was cut parasaggitally (50 μm) on a vibrating microtome. Transverse sections were collected from the spinal cord 11-16 mm rostral to and 11-16 mm caudal to the injury site. We incubated the sections with avidin-biotin-peroxidase complex and visualized the BDA tracer by nickel-enhanced diaminobenzidine HRP reaction (Grandpre, 2002, Nature, 417, 547-551). We processed some sections for serotonin immunohistochemistry (anti-5-HT antibody) by indirect immunofluoresence. To visualize the lesion area, we double-stained some sections with antibodies directed against GFAP (Sigma®, St. Louis, Mo.). We mounted, dehydrated and covered the sections with mounting medium.
We fused the ligand binding domain (27-310) of rat Nogo receptor-1 to the rat IgG1 Fc domain to promote stability and purification. We purified protein from stably transfected CHO cells. […]

B1: sNogoR310: soluble Nogo receptor-1 polypeptide, residues 26-310 (human) or 27-310 (rat); mouse form expressed in transgenic mice (protein)
chain: CPGACVCYNEPKVTTSRPQQGLQAVPAGIPASSQRIFLHGNRISYVPAASFQSCRNLTILWLHSNALAGIDAAAFTGLTLLEQLDLSDNAQLRVVDPTTFRGLGHLHTLHLDRCGLQELGPGLFRGLAALQYLYLQDNNLQALPDNTFRDLGNLTHLFLHGNRIPSVPEHAFRGLHSLDRLLLHQNHVARVHPHAFRDLGRLMTLYLFANNLSMLPAEVLVPLRSLQYLRLNDNPWVCDCRARPLWAWLQKFRGSSSGVPSNLPQRLAGRDLKRLATSDLEGCA
For B1, the “blocking of binding of NogoA, NogoB, NogoC, MAG and OM-gp to Nogo receptor-1” value in experiment [1] was “block the binding”. Also, the grid climbing entry in experiment [2] (2-6 weeks post-injury) is on record as “progressive improvement”. Further, the “BDA-labeled regenerating fibers in the rostral-caudal axis” value in experiment [2] (any level 1-4 mm caudal to the lesion, each transgenic mouse) is 5-15. Besides, the “sustainable inclined plane angle” value in experiment [2] (days 7-28 after injury vs control) is “significantly greater”. Also, the BBB scores entry in experiment [2] (lines Tg08 and Tg01 vs control, 7-28 days) is recorded as “significantly higher”. In experiment [2] (rostral to dorsal hemisection), the “fibers on the opposite side of the spinal cord (ipsilateral to tracer injection)” value is listed as 4-12 sprouts per transverse section. Besides, the “sprouting density of collateral sprouts (micro densitometric measurement)” value in experiment [2] (rostral to lesion, transgenic vs WT) is “approximately a tenfold increase”. For the same molecule, the CST sprouting result in experiment [2] (secreted in transgenic mice) is “induces CST sprouting”. Moreover, in experiment [2] (transgenic vs WT), the “serotonin fibers in ventral horn of caudal spinal cord” value is “much greater number”. For the same molecule, in experiment [3], the “protection from myelin-mediated inhibition of neurite outgrowth” value is on record as “protected”. In experiment [4], the “protection in similar assay using chick neurons” value is given as “protective”.

B2: sNogoR310-Fc: fusion protein comprising amino acids 26-310 of rat Nogo receptor-1 and a rat Fc fragment (protein)
chain: PCPGACVCYNEPKVTTSRPQQGLQAVPAGIPASSQRIFLHGNRISYVPAASFQSCRNLTILWLHSNALAGIDAAAFTGLTLLEQLDLSDNAQLRVVDPTTFRGLGHLHTLHLDRCGLQELGPGLFRGLAALQYLYLQDNNLQALPDNTFRDLGNLTHLFLHGNRIPSVPEHAFRGLHSLDRLLLHQNHVARVHPHAFRDLGRLMTLYLFANNLSMLPAEVLVPLRSLQYLRLNDNPWVCDCRARPLWAWLQKFRGSSSGVPSNLPQRLAGRDLKRLATSDLEGCA
modifications: left off: a dimerising Fc or GST
notes: fusion protein comprising amino acids 26-310 of rat Nogo receptor-1 and a rat Fc fragment
Turning to B2, the “blocking of Nogo-66, MAG and myelin action” value in experiment [5] is “blocks”. Besides, the “protection from myelin-mediated inhibition of neurite outgrowth” value in experiment [3] was “protected”. Also, the “animals with consistent forelimb-hindlimb coordination and parallel paw position” value in experiment [6] (4 weeks after injury) is listed as “all 9”. Also, in experiment [6] (distal spinal cord), the “total collateral length of each sprout versus NEP 1-40-treated animals” value is on record as “twice as great”. Besides, the “serotonin fibers versus control group” value in experiment [6] (sections 11-15 mm below the lesion) is “twice as numerous”. Besides, in experiment [6] (transverse sections 11-15 mm distal), the “rubrospinal tract fibers distal to SCI” value was “many BDA-labeled RST fibers”.

Source of the values: patent publication US20080274112A1, “Nogo Receptor Antagonists” (priority 2003, published 2008).
